# Results as given in patent US20160237160A1, “ANTI-TWEAKR ANTIBODIES AND USES THEREOF” (BAYER PHARMA AKTIENGESELLSCHAFT, priority 2013, published 2016).
# B1: ITEM-1 (antibody, from another filing, mouse IgG1, V domains shown)
# VH: EVKLEESGGGLVQPGGSMKLSCVASGFSFSNYWMNWVRQSPEKGLEWVAEIRLKSNNYATHYAESVKGRFTISRHDSKSSVYLQMNNLRAEDTGIYYCTRAYADYFDYWGQGTTLTVSS
# VL: DIVLTQSPASLVVSLGQRATISCRASQSVSTSTYSYMHWYQQKPGQPPKILIKYASNLESGVPARFSGSGSGTDFTLNIHPVEEEDTATYYCQHSWEIPYTFGGGTKLEIKR
# Target: TPP-2305 (hTNFRSF12Aaa28-80) (Human) (UniProt Q9NP84)
# Assay: SPR (Biacore T100), IgG captured, TPP-2305 injected, 1:1 model
binder,measurement,value
B1,Kd,2.9 nM
same,koff,0.011 s⁻¹
same,kon,3.8e+06 M⁻¹ s⁻¹
